Paper PMC4967302
pKd, pKi: −log10 of the molar value.

Experiments:
[1] = molecular target: CD4 exposed at the surface of HEK 293T cells (UniProt P01730); assay: flow cytometry on cells
[2] = molecular target: CCR5 in crude membranes from CCR5-expressing HEK 293T cells (UniProt P51681); assay: radioligand binding; equilibrium saturation binding of 35S-labeled gp120 to crude membranes from CCR5-expressing HEK 293T cells, room temperature, in the presence of 200 nM soluble CD4; non-specific binding measured with 10 µM maraviroc; one-site binding model
UniProt P51681, sequence (P51681 whole entry): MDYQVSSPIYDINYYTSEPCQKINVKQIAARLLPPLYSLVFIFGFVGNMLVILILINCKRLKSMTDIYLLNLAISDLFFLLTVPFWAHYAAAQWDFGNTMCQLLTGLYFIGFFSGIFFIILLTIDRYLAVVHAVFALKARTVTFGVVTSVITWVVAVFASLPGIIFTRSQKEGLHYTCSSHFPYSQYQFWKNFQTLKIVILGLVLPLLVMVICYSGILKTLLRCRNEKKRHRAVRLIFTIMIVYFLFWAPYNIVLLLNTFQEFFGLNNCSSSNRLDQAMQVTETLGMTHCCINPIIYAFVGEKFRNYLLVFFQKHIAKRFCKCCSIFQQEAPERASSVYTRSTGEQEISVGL

In the case of “purified soluble wt B gp120 (domain or fragment)”, the pKi [1] was 8.41 and the pKd [2] was 8.08.
